In PMC2850574 (Biochemistry, 2010):
Ends that are not written are not given here.

Experiments:
[1] = molecular target: IAEDANS-labeled SecAΔ11-Cys-190 (E. coli) (UniProt P10408)
SecA-Cys-256 = SecA-Cys-256 (Escherichia coli, UniProt P10408, C885S/C887S/C896S/C98S/T256C); assay: Signal peptide binding to SecA-Cys-256 by fluorescence anisotropy
SecAΔ11-Cys-190 = SecAΔ11-Cys-190 (Escherichia coli, UniProt P10408, C885S/C887S/C896S/C98S/N190C); assay: Binding of SP22 to monomeric SecAΔ11-Cys-190 by FRET titration
SecA-Cys-190 = assay: Specificity control: scrambled SP22 binding/FRET; design: species or system Escherichia coli; details: 7 μM IAEDANS-labeled SecA-Cys-190, 18 μM IANBD-labeled scrambled SP22; data not shown
[2] = molecular target: LamB signal peptide signal peptide (Escherichia coli) (UniProt P02943); details: cited from earlier work
[3] = molecular target: IANBD-labeled alkaline phosphatase signal peptide SP22 (E. coli); assay: fluorescence polarisation
[4] = molecular target: T1, wild-type SecA (Escherichia coli SecA ATPase) (E. coli, UniProt P10408 9-836); assay: fluorescence polarisation
[5] = molecular target: T1, wild-type SecA (Escherichia coli SecA …); assay: fluorescence polarisation; remark: listed apart in the source

IAEDANS-labeled SecAΔ11-Cys-190 (from UniProt P10408 9-836) (natural protein)
Kd [1]: 230 nM

MKQSTIALALLPLLFTPVTKAC-NH2 [SP22]
Kd (SecA-Cys-256): 1100 ± 200 nM
Kd (SecAΔ11-Cys-190): 3060 ± 1130 nM

PLMDTEITLKFLSPLQALKTVC-NH2 [scrambled SP22]
high-affinity binding and FRET (SecA-Cys-190): neither high-affinity binding nor FRET was detected

SecA (from UniProt P10408)
Kd [2]: 100000 nM

SecA-Cys-256 (unlabeled) (from UniProt P10408 9-836) (natural protein)
Kd [3]: 1100 nM

MKQSTIALALLPLLFTPVTKAC(IANBD)-NH2 [IANBD-labeled alkaline phosphatase signal peptide SP22]
Kd [4]: 1400 ± 200 nM
stoichiometry N [5]: 1 mole ratio of signal peptide to SecA
